Measurements published in the supplement of paper PMC9942255.
“And” between values parts separate entries of the source, which are not always exact repeats. Equal entries are not always repeated.

Tested on: Bacillus subtilis DB104 (SP-AmyQ fusion secretion)
Assay: AmyQ secretion efficiency, weighted average sort bin (1 = best secretion, 10 = worst) (bin number (weighted average, 1-10)); higher = lower secretion efficiency
Outline: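 A B. subtilis DB104 library carrying amyE-integrated fusions of designed signal peptides to mature AmyQ was encapsulated at about 0.3 cells per ~65 nL alginate bead with fluorescein-starch and grown about 13 h at room temperature. Following nile red staining, occupied beads were flow-sorted as large particles into 10 equally populated bins by green/red fluorescence ratio, and the bin amplicons were Illumina-sequenced. The secretion score is the read-frequency-weighted average bin number normalised to beads per bin, leaving out low-abundance sequences.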

Sequence | AmyQ secretion efficiency
MKKLLAAGIIGLLTVSIASPSFSAEK | 3.02
MKKLLAAGIIGLLTVSIASPHFAAEK | 7.4
MKIRKILLSSALSFGMLISAVPALFAGT | 5.97
MKKELLASLVLCLSLKRLVSTNKVFAATT | 7.51
MRSYIKSKKRCKQQLILFVPTALADNS | 7.44
MKLKSKLLLSCLALSTVFVATTIANEPTH | 7.21
MKKGIIRFLLVSFVLFFALSSTGITGVQAAPA | 1.83
MKVCQKSIVRFLVSLIIGTFVITSVPFMANAQSD | 3
MKVPKTMLLSTAAGLLLSLRRKKRKVSAHYV | 6.33
MKIRKILLSSALSFGMLISAVPALAAEE | 2.95
MKKKQVMLALTAAAGLGLTALVFFHSAPAAKAAPL | 2.39
MKKRFFGPIILAFILFAGLIAIPS | 5.16
MKRIRIPMTLALGAALTIAPLSFASMEEN | 6.12
MKYCQKSISRFLVSLIIGTFVISVPFMANAQSD | 3.17
MTKKAWFLPLVCVLLISGWLAPAASASNQTT | 2.2
MKKVLMAFIICLSLILSVLAAPPSGSAVSAKAESV | 2.05
MRFTKVVGFLSVLGLAAVFPLTAQAAKR | 5.46
MKKCLLFLTTIALILSLSTNCFAKNT | 1.59
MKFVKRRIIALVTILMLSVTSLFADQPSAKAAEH | 3.52
MRSYIKVLTMCFLGLILFVVIATVSAIPTALADNS | 2.02
MKLSVKIALVLIVAAAAMTAKMYATAKGN | 3.77
MGMKKKLSLGVASAALGLALVGGGTWKAFN | 5.21
MKSKGSIMACLILFSFTITTFINTGTISAFSN | 4.33
MRPVFPLILSAVLFLSCFFGARQTESFASASKR | 4.97
MGLGKKLSVAVAASFMSLSISLPGVQGAEG | 1.9
MMKKLFHSTLIVLLFFSFFGVQIHAKKQ | 2.18

Sequence | AmyQ secretion efficiency
MKKSQYFIVFICFFVLFSVHPIARAAADS | 3.28
MKRLCLWFTVFSLFLVLLPGKALYAVD | 4.11
MKKRFFGPIILAFILFAGAIAKKK | 7.24
MNLRKTYGSSALSLGMLVSAAPVLATSS | 6.93
MKRFSTAYLLLGILCSAAVFLIGAPSRALGARR | 7.6
MKKQIITATTAVVLGSTLFAGASSAQSI | 2.25
MKLAKRVKRRKRKTTLAITAKAKEL | 7.36
MNFKKTGVSALSISALALSVSGVASAHEI | 3.9
MLTKRLLTIYIMLLGLIAWFPGAAQAKRK | 6.07
MRKSLITLGLASVIGTSSFLIPFTKASAETL | 2.6
MRKKRVITCVMAASLTLGSLLPAGYMSAKED | 2.67
MMKKGQSGSALTATVLFGTCAVDVPGIISPKTAEAASQ | 6.78
MKRIRIPMTLALGAALTIAPLSFHSAEEN | 7.02
MRSKKLWISLLFALTLITLLVAFTMAFSNMSAQAAGK | 7.19
MKKKRLAAGLTASAIVGTTLVVTPAEAATI | 4.26 and 3.28
MLTKRLLTIYIMLLGLIAWFPGAAQAATP | 2.42
MKKRITYSLLALLAVVAFAFTRSSKAKAAEA | 3.67
MKKRFFGPIILAFILFAGAIVIPS | 5.76
MRSYIKVLTMCFLGLILFVPTALMDNS | 6.46
MMKKLFHSTLIVLLFFSFFGVRKKRRKIHAKKQ | 6.23
MMSTIFAFLTGLMMFGTITAASASPD | 4.92
MTKKFTIMSAWFLPLVCVLLISGWLAPAASASAQTT | 1.82
MKRKRKRIMIFLTSFMLLAMTGQTALAKDV | 3.59
MKKVKKRRIICLSLILSVLAAPPSGAKAESV | 1.81
MMKCVICLSLLVFGTTAAHAEET | 3.1
MYKKFVPFAVFLFLFFVSFRKMRNPHALDY | 6.42
